Test results published in patent publication US5691196, “Recombinant nucleic acid containing a response element” (American Cyanamid Company).

Experiments:
RXRalpha [1] = molecular target: T1, RXRalpha (Homo sapiens, UniProt P19793 P19793:1-462); experiment: cell_activity; RA vs no RA; details: tags: pMT2-RXRalpha, CV-1 cells; 5' GATC overhang
RXRalpha [2] = molecular target: T1, RXRalpha; experiment: cell_activity; RA vs no RA; details: tags: pMT2-RXRalpha, CV-1 cells; 5' GATC overhang; remark: listed apart in the source
Protocol: (§1) Maintenance of CV-1 cells, transfection of plasmid DNA into these cells, normalization for plasmid DNA uptake by the cells and CAT and β-galactosidase (β-gal) assays are performed as previously described in the literature. The transfection mixtures contained 5 μg of each reporter plasmid, 5 μg of the β-gal expression vector pRSV-β-gal, the amounts of the pMT2-RXRα, pMT2-RARα, pMT2-RARβ, pMT2-ARP-1 and pMT2-Ear3-COUP-TF expression vectors and the appropriate amounts of the previously described control vector pMT2-UT to bring the final amount of the plasmid DNA in the transfection mixtures to a total of 17 μg. The transfection mixtures containing the expression vectors pMT2-HNF4 or pSG5-AR, 1 μg of the β-gal expression vector pCMV-β-gal instead of the vector pRSV-β-gal is used and the final amount of plasmid DNA in the transfection mixture is adjusted to a total of 13 μg as described above.
(§2) The CAT activity in extracts from these cells is normalized for DNA uptake by the cells by conventional methods, and expressed relative to the normalized CAT activity of the construct -41ALCAT in the absence of cotransfected receptor expression vectors or any ligands (Relative CAT Activity). The data represent the average of at least two independent experiments.

RXRalpha [3] = molecular target: T1, RXRalpha; experiment: cell_activity; CAT reporter, RA vs no RA; details: tags: pMT2-RXRalpha, CV-1 cells; 5' GATC overhang
Protocol: as §1, §2

RXRalpha [4] = molecular target: T1, RXRalpha; experiment: cell_activity; yeast lacZ reporter, two copies, 1e-6 M 9-cis-RA; 4-fold with all-trans-RA; details: protein: extract; tags: ubiquitin-fusion expression in yeast (YEpRXRalpha); label: 32P
RARalpha = molecular target: T2, RARalpha (UniProt P10276 P10276:1-462); experiment: cell_activity; two copies of M3; RA; 500 ng RARalpha vector reverses ARP-1 repression and exceeds no-ARP-1 level; details: tags: pMT2-RARalpha, CV-1 cells; 5' GATC overhang
T2 sequence: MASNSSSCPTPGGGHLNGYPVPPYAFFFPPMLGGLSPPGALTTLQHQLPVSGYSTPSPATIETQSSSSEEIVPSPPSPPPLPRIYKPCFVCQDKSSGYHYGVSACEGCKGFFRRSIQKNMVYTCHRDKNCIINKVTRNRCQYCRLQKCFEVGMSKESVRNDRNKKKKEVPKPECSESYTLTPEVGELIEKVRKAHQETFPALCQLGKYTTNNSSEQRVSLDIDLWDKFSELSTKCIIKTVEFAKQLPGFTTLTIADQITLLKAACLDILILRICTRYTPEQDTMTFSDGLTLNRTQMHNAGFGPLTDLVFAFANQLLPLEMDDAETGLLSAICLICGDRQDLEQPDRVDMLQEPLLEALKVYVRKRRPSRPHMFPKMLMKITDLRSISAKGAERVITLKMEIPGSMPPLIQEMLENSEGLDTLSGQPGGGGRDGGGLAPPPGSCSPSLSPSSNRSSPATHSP
Protocol: A reporter construct similar to [A5']-41ALCAT but containing two copies of a mutated version of site A5' in which the sequence CCT in the spacer between the two repeats in the site A5' has been changed to TTT (M3) is tested for its responsiveness to different amounts (indicated) of the RXRα or RARα expression vectors in the presence of RA and the indicated amounts of the ARP-1 expression vector by transient transfection assays into CV-1 cells as described in FIG. 8.

T1 sequence (P19793 whole entry, one chain of several): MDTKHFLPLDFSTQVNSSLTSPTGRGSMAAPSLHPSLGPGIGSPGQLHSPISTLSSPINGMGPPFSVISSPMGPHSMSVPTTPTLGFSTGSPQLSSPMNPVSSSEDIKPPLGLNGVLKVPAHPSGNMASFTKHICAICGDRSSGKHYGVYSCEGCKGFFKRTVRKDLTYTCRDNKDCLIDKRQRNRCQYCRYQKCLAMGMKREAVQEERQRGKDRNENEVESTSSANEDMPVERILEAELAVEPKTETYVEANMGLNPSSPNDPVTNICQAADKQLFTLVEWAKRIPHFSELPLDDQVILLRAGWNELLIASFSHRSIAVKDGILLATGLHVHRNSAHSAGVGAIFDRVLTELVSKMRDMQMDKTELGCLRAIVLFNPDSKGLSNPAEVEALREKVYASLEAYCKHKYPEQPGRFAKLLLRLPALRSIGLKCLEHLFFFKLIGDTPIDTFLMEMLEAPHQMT

B1: M9 (dsDNA)
DNA 1: ACTGAACTGTGACCCCTG
DNA 2: CAGGGGTCACAGTTCAGT
activity (RXRalpha [1]): < 3 fold

B2: M2 (dsDNA)
DNA 1: ACTGAACTGATGACCCCTG
DNA 2: CAGGGGTCATCAGTTCAGT
activity (RXRalpha [2]): < 3 fold

B3: site A5' (dsDNA)
DNA 1: ACTGAACCCTTGACCCCTG
DNA 2: CAGGGGTCAAGGGTTCAGT
activity (RXRalpha [3]): 4.8 fold

B4: apoAI site A (oligo A) (dsDNA)
DNA 1: ACTGAACCCTTGACCCCTGCCCT
DNA 2: AGGGCAGGGGTCAAGGGTTCAGT
activity (RXRalpha [4]): 14 fold

B5: M3 (dsDNA)
DNA 1: ACTGAACTTTTGACCCCTG
DNA 2: CAGGGGTCAAAAGTTCAGT
activity (RARalpha): > 2 fold

B6: M10 (dsDNA)
DNA 1: ACTGACCTGTGACCCCTG
DNA 2: CAGGGGTCACAGGTCAGT
activity (RXRalpha [1]): < 3 fold

B7: M4 (dsDNA)
DNA 1: ACTGACCCCTTGACCCCTG
DNA 2: CAGGGGTCAAGGGGTCAGT
activity (RXRalpha [3]): 7 fold
